From the RNAGym collection of RNA variant scans (doi:10.1073/pnas.2313332121)
For part of these data: Fewer inactive variants are shown than the library holds.

B1: TPR 5TU (parent)
chain: GGAUCUUCUCGAUCUAACAAAAAAGACAAAUCUGCCACAAAGCUUGAGAGCAUCUUCGGAUGCAGAGGCGGCAGCCUUCGGUGGCGCGAUAGCGCCAACGUUCUCAACUAUGACACGCAAAACGCGUGCUCCGUUGAAUGGAGUUUAUCAUG
B2: TPR t1 (parent)
chain: GACCAAUCUGCCCUCAGAGCUCGAGAACAUCUUCGGAUGCAGAGGAGGCAGGCUUCGGUGGCGCGAUAGCGCCAACGUCCUCAACCUCCAAUGCAUCCCACCACAUGAUGAUGCCUGAAGAGCCUUGGUUUUUUG

Variants of: B1
Test: polymerase ribozyme fitness, log enrichment relative to wild type (log ratio); higher = more active; in vitro selection for triplet polymerase activity
How it was run: (§1)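 Mutant libraries of each subunit of a heterodimeric triplet polymerase ribozyme were built by PCR and transcribed. Each library went through one round of in vitro selection in triplicate: annealing with biotinylated primer, partner subunit and triplets, frozen incubation at −7 °C, gel excision of extended constructs, streptavidin-bead capture and RT-PCR. Input and output libraries were Illumina-sequenced; only genotypes with ≥10 input reads and ≥1 read per output were kept. Fitness is log2(genotype enrichment/wild-type enrichment), using inverse-variance-weighted replicate averages.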

Variant | polymerase ribozyme fitness (log ratio)
A3G A12C A39G A97U G133A G143C | ≤ -4.2
A3C C85U C95U C114U G133C | ≤ -4.2
A3C A28U U77A C93U C129A U148G | ≤ -4.2
A3G U7G C38U A40G C54G C95U U145A | ≤ -4.2
A3U C76G A89U C93U G100A A137C G143U U144A | ≤ -4.2
A3C G58C C63U C95G | -1.68
A3C G58C C95G C129A A142C | ≤ -4.2
A3G C116U G124A A142G | -2.6
A3C U7G C14U A52G | -3.28
A3U C18U A20C A30C A41C C69U G94A C103G | ≤ -4.2
A3G C18U C27G A28U U78A | ≤ -4.2
A3G C18U U56G G94A A110U A138U U139A | ≤ -4.2
A3G C5G G84A G88A | -3.09
A3U A20U G50C | ≤ -4.2
A3C G70C C87G C96G A107G U146G | ≤ -4.2
A3U C85G C93G G136A A142C | ≤ -4.2
A3C C8G C76U C87A A106U | ≤ -4.2
A3C C8U U61G G71C G80C C93A C125G U127C U145C G152U | ≤ -4.2
A3C G25A A40U G71A C85U C96U A119C A121G G140C | ≤ -4.2
A3U C36A G42C C87A A89G G100C | ≤ -4.2
A3C U4G A49U U61C G70A G92U | ≤ -4.2
A3C U4G G58C C93U C149U | -3.55
A3G U15A U90C G94U G124A C125U | ≤ -4.2
A3U C36U C95U | -3.09
A3C A16C G48A C96G | -3.42

Variants of: B2
Test: as above
How it was run: as §1

Variant | polymerase ribozyme fitness (log ratio)
G120U U125A | 0.531
A121G U133G | 1.55
G128C U131A | -1.91
C123A U126A U130G U133G | 0.742
A121U U130G | 1.98
A121C G122U | 0.743
G120A G127C G135U | -0.669
C123A U125G | -0.261
G120C U132C | 1.38
G122A C123G | 1.74
G122A C123U | 0.258
U130A G135U | -0.655
U129A U132A | -1.56
G120C C124A | 1.02
G120C U130A | 0.0796
G120C U126A | -0.0406
U125A U133C | -0.0467
U125A U133A | -0.956
C124G U133A | 0.826
G127A G128U | -2.41

Variant | polymerase ribozyme fitness (log ratio)
A121U C123U | 2.27
G120A U129G | -0.391
G120U U130C | 0.002
C124G U125A U134C | 0.622
C123U U126A | 0.0607
C123G G127A | -0.249
G127U U130G | -0.841
A118G C124G | -0.0684
U126C U132C | -1.79
U130G U132A | -1.3
G128U U130C | 0.0266
U131C | 0.237
U131A | -0.123
U131G | -0.452
U130A U133A | -1.4
G120A U130A | 0.684
A121G G135U | 0.495
G120A G135A | -0.0112
G120U U129G | -1.17
G120A C123A | -0.268

Variant | polymerase ribozyme fitness (log ratio)
G120A C124A | 2.09
G120U U131A | -1.19
G120A U126A U131G | 0.608
U126G | -1.7
U126C | -0.485
U126A | -1.69
U129G U132A | -3.7
G120A G128A | -0.497
C124U G127A G135U | -0.796
C123A U130A | 0.213
G120U U126G U132A | -0.734
A119G G120A | 1.35
A118U G127C | -1.35
C124A U130A | 1.09
A118U G120U U133G | -0.107
U131A U132C | 0.142
A118G G122U | 0.311
G127C G128U U131C | -1.37
G128A U130G | -1.43
